Target: the molecule itself
Assay: crystal structure

B1: KdpE-E216A (natural protein, E. coli, UniProt P21866 1-225, looked up)
chain: MTNVLIVEDEQAIRRFLRTALEGDGMRVFEAETLQRGLLEAATRKPDLIILDLGLPDGDGIEFIRDLRQWSAVPVIVLSARSEESDKIAALDAGADDYLSKPFGIGELQARLRVALRRHSATTAPDPLVKFSDVTVDLAARVIHRGEEEVHLTPIEFRLLAVLLNNAGKVLTQRQLLNQVWGPNAVEHSHYLRIYMGHLRQKLEQDPARPRHFITATGIGYRFML
  binding result: binds
